Experimental data published in US20230137139A1, “BIOSYNTHESIS OF CANNABINOIDS AND C[…]” (priority 2020, published 2023).

B1: Strain t808200: library TS SEQ ID NO: 164, UniProt A0A3F3PQ52, Aspergillus welwitschiae (protein)
chain: MGNTTSIAGRDCLISALGGNSALAAFPNELLWTADVHEYNLNLPVTPAAITYPETAEQIAGIVKCASDYDYKVQARSGGHSFGNYGLGGADGAVVVDMKHFTQFSMDDETYEAVIGPGTTLNDVDIELYNNGKRAMAHGVCPTIKTGGHFTIGGLGPTARQWGLALDHVEEVEVVLANSSIVRASNTQNQDVFFAVKGAAANFGIVTEFKVRTEPAPGLAVQYSYTFNLGSTAEKAQFVKDWQSFISAKNLTRQFYNNMVIFDGDIILEGLFFGSKEQYDALGLEDHFAPKNPGNILVLTDWLGMVGHALEDTILKLVGNTPTWFYAKSLGFRQDTLIPSAGIDEFFEYIANHTAGTPAWFVTLSLEGGAINDIAEDATAYAHRDVLFWVQLFMVNPLGPISDTTYEFTDGLYDVLARAVPESVGHAYLGCPDPRMEDAQQKYWRTNLPRLQELKEELDPKNTFHHPQGVMPA
B2: t808240 (protein)
chain: MGNTTSIGVVRDCLTSAVGGVAAHVAFQDTLLYQTSAVKPYNLNVPVTPAAVTYPQSANEVAAIVKCASDYDYKVQARSGGHSFGNFGLGGQNGAIVIDMKHFSQFSMDESTFIATIGPGTTLGNLDTELYNAGNRAMAHGICPSIRTGGHLTVGGLGPTSRQWGLALDHVEEVEVVLANSSVVRASDTQNQDVLFAIKGAAASFGIVTEFKVRTEEAPGLAVRYSYSFNLGTPAEKAKLAKDWQAYIAQENLTWKFSSNLIIFDGQIILEGIFFGSKEEYDKLNLEKKFPTSEPGTVLVITNWLGMIGHALEDTILRLIGDSPTWFYAKSLGFTPNTLIFDSTIDEFFDYIHKANAGTLAWSVMLSLEGGAINAVPKNATAYGHRDVLFWVQIFVVNPLGPISQTTYGFTDGLYNILARGVPESAGHAYLGCPDPKMPDAQRAYWRNNYPRLEELKRDLDPKDIFHNPQGVRVAS
B3: t808237 (protein)
chain: MGNTTSIAGRDCLVSALGGNAGLVAFQDQLLYQTTAVHEYNLNIPVTPAAVTYPETAEQIAAVVKCASEYDYKVQARSGGHSFGNYGLGGADGAVVVDMKHFSQFSMDDQTYEAVIGPGTTLGDVDTELYNNGKRAMAHGICPTISTGGHFTMGGLGPTARQWGLALDHVEEVEVVLANSSIVRASNTQNQEVFFAVKGAAASFGIVTEFKVRTQPAPGLAVQYSYTFNIGSSAEKAQFVKDWQSFISAKNLTRQFYTNMVIFDGDIILEGLFFGSQEQYEALGLEDRFVPKNPGNILVLTDWLGMVGHALEDTILRLVGNTPTWFYAKSLGFTPDTLIPASGIDEFFDYIENHKAGTLTWFVTLSLEGGAINDVPEDATAYGHRDVLFWVQIFMASPTGPVSSTTYDFADGLYNVLTKAVPESEGHAYLGCPDPKMADAQQKYWRQNLPRLEELKATLDPKDTFHNPQGILPA
B4: t808238 (protein)
chain: MWLSTMNGSASRRSDPVSRKIVCDGHASAHEVRTDNEAARDVPSRTAVNKERKQGSGPPGAMQRGFHAAHKPNEMVPQDGPLGRTAQLFRLAPACQSEPTRAPGQPSDLRLRQIPLATEQAARTLARMRPARFTFPYGRAAEDDCYLKKEDEGHDQSHPTSVLVGVPPFTRRCAAAETFKDTRARAPGTQPTDTTSTGASPSWTLSPLLSLSATDDSVPSKMGNGQSTPLQQCLNTVCNGRLGCVAFPSDALYQAAWVKPYNLDVPVTPIAVFKPSSTEDVAGAIKCAVASNVHVQAKSGGHSYANFGLGGQDGELMIDLANLQDFHMDKTSWQATFGAGYRLGDLDKKLQANGNRAIAHGTCPGVGIGGHATIGGLGPMSRMWGSALDHVLSVQVVTADGSIKNASESENSDLFWALRGAGASFGVITKFTVKTHPAPGSVVQYTYKISLGSQAQMAPVYAAWQALAGDPKLDRRFSTLFIAEPLGALITGTFYGTKAEYEATGIAARLPSGGTLDLKLLDWLGSLAHIAEVVGLTLGDIPTSFYGKSLALREEDMLDRTSIDGLFRYMGDADAGTLLWFVIFNSEGGAMADTPAGATAYPHRDKLIMYQSYVIGIPTLTKATRDFADGVHDRVRMGAPSANSTYAGYIDRTLSREAAQEFYWGAQLPRLREVKKAWDPKDVFHNPQSVDPAE
B5: t808232 (protein)
chain: MGNTTSIAAGRDCLLSAVGGNHAHVAFQDQLLYQATAVEPYNLNIPVTPAAVTYPQSADEVAAVVKCAADYGYKVQARSGGHSFGNYGLGGEDGAIVVDMKHFDQFSMDESTYTATIGPGITLGDLDTALYNAGHRAMAHGICPTIRTGGHLTIGGLGPTARQWGLALDHVEEVEVVLANSSIVRASDTQNQEILFAVKGAAASFGIVTEFKVRTEEAPGLAVQYSFTFNLGTAAEKAKLVKDWQAFIAQEDLTWKFYSNMNIIDGQIILEGIYFGSKAEYDALGLEEKFPTSEPGTVLVLTDWLGMVGHGLEDVILRLVGNAPTWFYAKSLGFAPRALIPDSAIDDFFEYIHKNNPGTVSWFVTLSLEGGAINKVPEDATAYGHRDVLFWVQIFMINPLGPVSQTIYDFADGLYDVLAKAVPESAGHAYLGCPDPRMPNAQQAYWRNNLPRLEELKGDLDPKDIFHNPQGVMVVS

Each molecule was assayed on CBCA, THCA, and CBDA production; CBGA residual substrate (assay: In vivo TS activity assay, Example 3 metagenomic CBCAS screen, cultures fed olivetolic acid). Conditions: not given.
Assay type: cell-based, S. cerevisiae
Method: (§1) An assay to detect TS activity was conducted as follows: each thawed glycerol stock of candidate CBCAS transformants was stamped into a well of YEP+4% dextrose media. Samples were incubated at 30° C. in a shaking incubator for 2 days. A portion of each of the resulting cultures was stamped into a well of YEP+4% galactose+1 mM olivetolic acid (FIG. 1 Structure 6a). Samples were incubated at 20° C. and shaken in a shaking incubator for 4 days. Every 24 hours during those 4 days, 2% galactose and 1 mM olivetolic acid were spiked into the cultures. Sodium citrate buffer adjusted to pH 5.5 was added to each well at a final concentration of 100 mM. Samples were incubated at 20° C. and shaken in a shaking incubator for 2 days. A portion of each of the resulting production cultures was stamped into a well of phosphate buffered saline (PBS). Optical measurements were taken on a plate reader, with absorbance measured at 600 nm and fluorescence at 528 nm with 485 nm excitation. Samples were incubated at 30° C. in a shaking incubator for 2 days. 100% methanol was stamped into the production cultures in half-height deepwell plates. Plates were heat sealed and frozen. Samples were then thawed for 30 min and spun down at 4° C. A portion of the supernatant was stamped into half-area 96 well plates. CBCA, THCA, and CBDA production in the samples was quantified via liquid chromatography-mass spectrometry (LC-MS).
(§2) To explore whether other putative CBCASs may exist in the broader metagenome, a library of 1072 candidate CBCAS genes was designed using the A. niger CBCAS enzyme identified in Example 1 as a reference. Protein sequences were recoded in silico for expression in S. cerevisiae and synthesized in the integrative yeast expression vector shown in FIG. 5. Each candidate enzyme expression construct was transformed into an S. cerevisiae CEN.PK strain that also expressed a prenyltransferase enzyme capable of catalyzing reaction R^4 in FIG. 2. Strain t616313, expressing GFP, was included in the library screen as a negative control for enzyme activity. Strain t807925, expressing the A. niger enzyme identified in Example 1, was included in the library screen as a positive control for enzyme activity. All candidate enzymes in the library, as well as the enzyme expressed by positive control strain t807925, included an N-terminal MFalpha2 signal peptide (SEQ ID NO: 16) (with a methionine residue added at the N-terminus of the MFalpha2 signal peptide) and a C-terminal HDEL signal peptide (SEQ ID NO: 17).
The library of candidate CBCAS enzymes was assayed for activity in a primary high-throughput screen using the assay described in Example 1. Production of CBCA, THCA, and/or CBDA in the samples was quantified via LC-MS.
(§3) Based on results of the primary screen, 70 strains were carried forward to a secondary screen to confirm activity observed in the primary screen. The experimental protocol for the secondary screen was identical to the primary screen, except that additional technical replicates were included per strain, and replicate production cultures for each strain were separately fed 1 mM olivetolic acid or 1 mM divaric acid. All strains were screened in quadruplicate (FIGS. 10A-10C, Tables 10 and 11).

Molecule	percentage of CBCA in product profile compared with the A. niger positive control
B1	higher percentage of CBCA

Same assay, conditions: metagenomic CBCAS candidates in S. cerevisiae, secondary screen, fed 1 mM olivetolic acid, quadruplicate

Molecule	Mean CBCA	Mean CBDA	Mean THCA
B2	6248.43 µg/L	0.00 µg/L	115.70 µg/L
B3	12281.96 µg/L	37.34 µg/L	760.03 µg/L
B4	2934.86 µg/L	0.00 µg/L	0.00 µg/L
B5	20281.01 µg/L	64.49 µg/L	1367.99 µg/L

Same assay, conditions: olivetolic acid fed (Table 12)

Molecule	Average CBGA residual substrate
B2	24393.82 µg/L
B3	69.20 µg/L
B4	63815.30 µg/L
B5	0.00 µg/L

Same assay, conditions: share of terminal cannabinoid product profile, fed 1 mM olivetolic acid

Molecule	% CBCA	% CBDA	% THCA
B2	98.18%	0.00%	1.82%
B3	93.90%	0.29%	5.81%
B4	100.00%	0.00%	0.00%
B5	93.40%	0.30%	6.30%

Each molecule was assayed on CBCVA, THCVA, and CBDVA production; CBGVA residual substrate (assay: In vivo TS activity assay, Example 3 metagenomic CBCAS screen, cultures fed divaric acid). Conditions: divaric acid fed (Table 12).
Assay type: cell-based, S. cerevisiae
Method: as §1, §2, §3

Molecule	Average CBGVA residual substrate
B2	4054.85 µg/L
B3	0.00 µg/L
B4	9247.47 µg/L
B5	0.00 µg/L

Same assay, conditions: secondary screen, cultures fed 1 mM divaric acid, S. cerevisiae, quadruplicate, LC-MS

Molecule	Mean CBCVA	Mean CBDVA	Mean THCVA
B2	4282.13 µg/L	0.00 µg/L	888.75 µg/L
B3	3599.07 µg/L	0.00 µg/L	1273.10 µg/L
B4	1841.90 µg/L	0.00 µg/L	282.10 µg/L
B5	2379.23 µg/L	0.00 µg/L	1626.74 µg/L

Same assay, conditions: share of terminal cannabinoid products, cultures fed 1 mM divaric acid

Molecule	% CBCVA	% CBDVA	% THCVA
B2	82.81%	0.00%	17.19%
B3	73.87%	0.00%	26.13%
B4	86.72%	0.00%	13.28%
B5	59.39%	0.00%	40.61%
